Results taken from the Human Domainome abundance scans (Beltran et al. 2025).

B1: 1-phosphatidylinositol 4,5-bisphosphate phosphodiesterase gamma-2, residues 772 to 827; numbered along this chain, P16885 (parent)
chain: RTVKALYDYKAKRSDELSFCRGALIHNVSKEPGGWWKGDYGTRIQQYFPSNYVEDI

Variants of: B1
Test: abundance fitness (aPCA) (normalised: wild type 0, dead -1); higher = more abundant; growth selection in yeast, the domain comes from the species named
Details: Homo sapiens

Abundance fitness: each site, then its substitutions
C20: S 0.008, D -0.095, K 0.002, I -0.216, T -0.012, V 0.017, Q -0.143, G -0.059, N -0.037, P 0.209, M -0.063, H 0.151, W -0.446, A 0.004, R 0.11, F -0.17, L -0.116
N27: E -0.164, K -0.625, R -0.549, S -0.473, M -0.695, L -0.974, C -0.722, Q -0.13, I -0.748, V -0.958, H -0.486, A -0.56, G -0.654, W -0.956, F -1.05
G22: L -1.14, C -0.86, W -0.811, T -0.872, Y -0.856, H -0.704, M -0.52, V -0.911, F -0.802, N -0.364, R -0.775, K -0.203, E -0.418, D -0.236, P -0.688, S -0.681
D8: G -0.083, Y -0.576, M -0.579, W -0.634, F -0.382, T 0.078, R -0.452, N -0.059, S -0.059, A 0.068, E -0.17, V -0.982, C -0.105
Y9: L -0.923, T -0.931, K -0.816, P -0.734, W -0.223, R -0.685, H -0.164, E -0.868, V -1.07, C 0.089, S -0.939, G -0.949
Y7: E -0.117, T -0.267, K 0.158, A 0.01, N -0.375, I -0.165, V -0.2, M -0.059, G -0.35, H -0.015, S -0.109, C -0.118, R 0.169, D -0.282, Q 0.2, L -0.077, F 0.126
V28: C -0.568, R -0.788, Q -0.762, D -0.821, M -1.08, K -0.623, S -0.836, N -0.671, A -0.873
L17: W -0.884, A -0.922, M 0.012, F -0.492, Q -0.903, T -0.788, I -0.154, G -1, R -0.945, V -0.41, E -0.81
R21: N -0.086, L -0.79, V -0.122, S -0.285, F -0.235, K -0.247
F19: A -0.758, V -0.886, P -0.536, G -0.604, Q -0.721, R -0.966, L -0.779, K -0.558, E -0.711, D -0.685, C -0.64
K12: P -0.93, N -0.181, S -0.263, A -0.16, Q -0.077, I -0.405, W -0.369, Y -0.48, M -0.004, V -0.217, F -0.63, R -0.092, H 0.113, T -0.097, E -0.206, D -0.239, C -0.705, L -0.177, G -0.182
I25: F -0.598, A -0.741, S -1, Q -0.921, R -0.976, V -0.481, W -0.723, L -0.386
S18: T -0.187, F -0.927, P -0.907, C -0.512, R -0.936, E 0.018, V -0.914, D -0.201, N -0.619, G -0.679, A -0.862, L -0.987
L24: T -0.222, E -0.083, Y 0.041, R -0.299, N -0.212, M -0.207, V -0.046, G -0.837, H -0.335, D -0.781, A -0.659, C -0.044, K -0.215, Q -0.267, P -0.818, W -0.359
A5: N -0.964, Q -0.865, S -0.503, K -0.998, M -0.942, V -0.965, R -0.896, W -0.955, L -0.999, P -0.95
D15: P -0.879, C -0.165, T 0.178, I -0.027, E 0.018, Q -0.214, H -0.362, Y -0.254, F -0.124, R -0.427, V -0.041, M 0.185, G -0.047, S 0.006, L -0.37, N -0.048, K -0.503, A -0.182
S14: G -0.007, I 0.031, L -0.167, M 0.024, W -0.334, P -0.439, T -0.291, Y -0.304, E -0.206, Q 0.037, D -0.053, A 0.038, H -0.107, N -0.316, K -0.172, F 0.024, C -0.124, R 0.026, V -0.16
L6: T -0.161, V -0.356, D -0.577, G -0.721, C -0.406, A -0.195, K 0.01, F -0.456, N -0.257, Q -0.485, I 0.09, R -0.177, H -0.834, W -0.935, E -0.631, P -0.691
E16: K -0.822, G -0.354, T -0.442, M -0.633, V -0.612, R -0.528, S -0.618, H -0.201, A -0.456, W -1.02, L -0.486, Q -0.168
H26: F 0.012, M -0.069, N -0.198, Y -0.121, E -0.002, T 0.034, I -0.084, S 0.01, A -0.113, K -0.221, G -0.43, W -0.072, Q -0.005, V -0.035, L -0.081, P -1.1, C -0.087, D -0.173
A11: T -0.461, V -0.972, P -0.446, C -0.819, L -1.05, S -0.39, N -0.378, W -0.989, R -0.683, Q -0.176, E -0.775
K10: G -0.373, T -0.025, D 0.052, S -0.008, Q -0.002, P -0.502, I -0.336, A -0.319, L -0.399, Y -0.106, W -0.319, M -0.356, N -0.042, E -0.104, F -0.333, R -0.033, C -0.034, V 0.103
R13: H -0.26, T -0.368, L -0.645, E -0.306, G -0.316, W -0.846, V -0.47, F -0.007, Y -0.1, S -0.056, Q -0.301, D -0.281, K -0.267, M -0.021, C -0.212
A23: N -0.131, F -0.314, R -0.698, I -0.613, C -0.092, W -0.858, E -0.052, Q -0.595, V -0.296, T -0.065, K -0.745, D 0.096, S -0.154, Y -0.059, H -0.471
